Blank lines part the entries; values can stand above or below the binder they belong to.
Columns and labels:
[1] = target: T1, recombinant cynomolgus monkey C5 (cynomolgus monkey, UniProt P01031 20-1676 (human entry), limits assumed); experiment: SPR (Biacore), 37C, pH 7.4, Ab captured on ProA/G
T1 construct: also called cynoC5
T1 chain: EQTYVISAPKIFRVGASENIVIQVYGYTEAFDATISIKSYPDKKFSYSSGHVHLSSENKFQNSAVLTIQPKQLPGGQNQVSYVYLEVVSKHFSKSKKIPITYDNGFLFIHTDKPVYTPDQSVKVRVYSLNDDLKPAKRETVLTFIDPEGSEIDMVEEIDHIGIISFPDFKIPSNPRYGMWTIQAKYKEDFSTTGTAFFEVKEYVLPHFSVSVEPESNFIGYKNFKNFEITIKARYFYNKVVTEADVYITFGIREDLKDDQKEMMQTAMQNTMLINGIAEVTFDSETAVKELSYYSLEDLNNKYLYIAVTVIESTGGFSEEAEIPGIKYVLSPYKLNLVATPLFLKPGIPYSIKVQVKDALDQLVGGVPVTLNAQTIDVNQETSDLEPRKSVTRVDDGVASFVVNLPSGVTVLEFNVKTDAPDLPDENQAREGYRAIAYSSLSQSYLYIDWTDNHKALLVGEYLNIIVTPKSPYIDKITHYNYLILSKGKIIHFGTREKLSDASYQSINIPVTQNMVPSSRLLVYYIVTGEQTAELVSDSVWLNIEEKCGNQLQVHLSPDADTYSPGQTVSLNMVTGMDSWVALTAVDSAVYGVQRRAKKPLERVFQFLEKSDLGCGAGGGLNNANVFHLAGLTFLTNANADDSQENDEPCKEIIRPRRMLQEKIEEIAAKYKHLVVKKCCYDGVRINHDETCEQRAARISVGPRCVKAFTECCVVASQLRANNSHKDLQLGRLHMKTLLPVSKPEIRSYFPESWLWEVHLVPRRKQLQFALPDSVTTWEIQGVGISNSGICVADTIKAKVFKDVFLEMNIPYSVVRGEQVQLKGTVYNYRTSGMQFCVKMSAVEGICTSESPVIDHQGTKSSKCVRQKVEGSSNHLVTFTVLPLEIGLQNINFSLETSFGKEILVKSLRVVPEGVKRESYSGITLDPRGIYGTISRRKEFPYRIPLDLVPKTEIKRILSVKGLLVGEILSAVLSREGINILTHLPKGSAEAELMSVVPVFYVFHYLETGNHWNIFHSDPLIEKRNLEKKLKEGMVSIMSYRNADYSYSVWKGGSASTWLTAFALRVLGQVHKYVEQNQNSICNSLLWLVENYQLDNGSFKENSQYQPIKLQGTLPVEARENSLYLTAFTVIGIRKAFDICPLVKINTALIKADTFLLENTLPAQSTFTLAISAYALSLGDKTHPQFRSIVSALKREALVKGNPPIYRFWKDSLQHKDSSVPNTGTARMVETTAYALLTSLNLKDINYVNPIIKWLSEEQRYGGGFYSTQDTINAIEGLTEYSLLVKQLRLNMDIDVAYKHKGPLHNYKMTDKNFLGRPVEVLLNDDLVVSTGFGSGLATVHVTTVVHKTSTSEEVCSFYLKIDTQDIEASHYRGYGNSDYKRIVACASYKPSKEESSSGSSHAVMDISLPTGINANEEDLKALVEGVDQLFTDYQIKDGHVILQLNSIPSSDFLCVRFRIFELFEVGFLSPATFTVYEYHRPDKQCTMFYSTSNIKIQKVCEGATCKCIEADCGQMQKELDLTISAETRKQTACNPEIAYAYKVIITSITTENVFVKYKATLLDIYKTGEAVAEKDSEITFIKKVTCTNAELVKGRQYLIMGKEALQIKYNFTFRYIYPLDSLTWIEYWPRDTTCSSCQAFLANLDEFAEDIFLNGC
Protocol: To observe the cross-reactivity of anti-C5 antibodies against human C5 (hC5) and cynomolgus monkey C5 (cynoC5), BIACORE® kinetics analysis was performed.

481-660 = target: T2, 481-660; experiment: summary drawing of the binding reactions to C5 beta-chain fragments
T2 construct: Expressed in E. coli
T2 GST fusion polypeptide: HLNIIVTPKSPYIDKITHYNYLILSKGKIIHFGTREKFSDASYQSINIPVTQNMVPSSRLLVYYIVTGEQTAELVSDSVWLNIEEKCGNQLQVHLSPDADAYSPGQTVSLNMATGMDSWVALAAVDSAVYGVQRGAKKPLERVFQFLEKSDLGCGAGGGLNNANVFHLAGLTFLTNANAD

[2] = target: T3, C5 peptide 33-108 fused to GST-tag (human, UniProt P01031 33-108); experiment: as above
T3 construct: not shown: GST-tag (glutathione S-transferase); vector and linker not restated

[3] = target: T4, C5 peptide 33-111 fused to GST-tag (human, UniProt P01031 33-111); experiment: as above
T4 construct: not shown: GST-tag (glutathione S-transferase); vector and linker not restated

321-500 [4] = target: T5, 321-500; experiment: as above
T5 construct: Expressed in E. coli
T5 GST fusion polypeptide: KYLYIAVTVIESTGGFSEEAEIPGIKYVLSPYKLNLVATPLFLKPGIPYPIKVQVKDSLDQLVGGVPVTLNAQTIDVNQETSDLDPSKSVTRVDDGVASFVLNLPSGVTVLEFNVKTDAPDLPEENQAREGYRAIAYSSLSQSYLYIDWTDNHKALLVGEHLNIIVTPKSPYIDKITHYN

[5] = target: T6, C5 peptide 52-124 fused to GST-tag (human, UniProt P01031 52-124); experiment: as above
T6 construct: not shown: GST-tag (glutathione S-transferase); vector and linker not restated

[6] = target: T7, C5 peptide 45-111 fused to GST-tag (human, UniProt P01031 45-111); experiment: as above
T7 construct: not shown: GST-tag (glutathione S-transferase); vector and linker not restated

[7] = target: T8, C5 peptide 45-124 fused to GST-tag (human, UniProt P01031 45-124); experiment: as above
T8 construct: not shown: GST-tag (glutathione S-transferase); vector and linker not restated

161-340 = target: T9, 161-340; experiment: Western blot of E. coli lysates expressing GST-fused C5 beta-chain fragments
T9 construct: Expressed in E. coli
Protocol: (§1) Anti-C5 monoclonal antibodies (MAbs) were tested for binding to C5 β-chain-derived peptides in Western blot analysis. […] The E. coli samples were harvested after incubation with 1 mM Isopropyl β-D-1-thiogalactopyranoside (IPTG) for 5 hours at 37° C., and centrifuged at 20000×g for 1 min to obtain pellets.
T9 GST fusion polypeptide: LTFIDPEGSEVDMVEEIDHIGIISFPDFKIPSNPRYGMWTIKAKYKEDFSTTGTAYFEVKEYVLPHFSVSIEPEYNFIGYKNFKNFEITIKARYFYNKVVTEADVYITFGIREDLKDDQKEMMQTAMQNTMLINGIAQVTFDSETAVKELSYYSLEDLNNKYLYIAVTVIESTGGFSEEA

recombinant human C5 [8] = target: T10, recombinant human C5 (human, UniProt P01031 20-1676); experiment: SPR (Biacore), 37C, association and dissociation at pH 7.4, Ab on ProA/G
T10 construct: Also used for the C5 of normal human serum in the functional rows; also called hC5; rhC5
Protocol: (§2) The kinetic parameters of anti-C5 antibodies against recombinant human C5 were assessed at 37° C. using BIACORE® T200 instrument (GE Healthcare) at three different conditions; (1) both association and dissociation were at pH7.4, (2) both association and dissociation were at pH5.8, and (3) association was at pH7.4 but dissociation was at pH5.8. ProA/G (Pierce) was immobilized onto a CM1 sensorchip using amine coupling kit (GE Healthcare) according to the recommended settings by GE Healthcare. Antibodies and analytes for condition (1) and (3) were diluted in ACES pH7.4 buffer (20 mM ACES, 150 mM NaCl, 1.2 mM CaCl₂, 0.05% Tween 20, 0.005% NaN₃) and for condition (2) they were diluted in ACES pH5.8 buffer (20 mM ACES, 150 mM NaCl, 1.2 mM CaCl₂, 0.05% Tween 20, 0.005% NaN₃). […] The surface was regenerated using 25 mM NaOH. Kinetic parameters at condition (1) and (2) were determined by fitting the sensorgrams with a 1:1 binding model and the dissociation rate at condition (3) was determined by fitting the sensorgrams with a 1:1 dissociation for MCK model using BIACORE® T200 Evaluation software, version 2.0 (GE Healthcare). pH dependency of all antibodies were shown as ratio of dissociation rate of condition (2) and (1).

recombinant human C5 [9] = target: T10, recombinant human C5; experiment: SPR (Biacore), 37C, association and dissociation at pH 5.8, Ab on ProA/G
Protocol: as §2

recombinant human C5 [10] = target: T10, recombinant human C5; experiment: SPR (Biacore), ratio of dissociation rates of conditions (2) and (1)
Protocol: as §2

recombinant human C5 [11] = target: T10, recombinant human C5; experiment: SPR (Biacore), 37C, association at pH 7.4, dissociation at pH 5.8
Protocol: as §2

321-500 [12] = target: T5, 321-500; experiment: Western blot of E. coli lysates expressing GST-fused C5 beta-chain fragments
Protocol: as §1

[13] = target: recombinant MG1-MG2 domain of human C5 β-chain (human, UniProt P01031 20-225); experiment: SPR (BIACORE T200, 37 C, pH7.4): antibody captured by ProA/G, MG1-MG2 domain injected (20 and 40 nM per paragraph 378; concentration of the curves not printed on the sheet)
Protocol: ProA/G (Pierce) was immobilized onto a CM4 sensorchip using amine coupling kit (GE Healthcare) according to the recommended settings by GE Healthcare. Antibodies and analytes were diluted into the respective running buffers, ACES pH7.4 and pH5.8 (20 mM ACES, 150 mM NaCl, 1.2 mM CaCl₂, 0.05% Tween 20, 0.005% NaN₃). […] The surface was regenerated using 25 mM NaOH. Kinetic parameters at both pH conditions were determined by fitting the sensorgrams with 1:1 binding model using BIACORE® T200 Evaluation software, version 2.0 (GE Healthcare).
The MG1-MG2 domain was injected at concentrations of 20 nM and 40 nM.

T4 sequence (P01031 33-111): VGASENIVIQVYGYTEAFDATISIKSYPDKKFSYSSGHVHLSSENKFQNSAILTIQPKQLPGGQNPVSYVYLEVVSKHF
T3 sequence (P01031 33-108): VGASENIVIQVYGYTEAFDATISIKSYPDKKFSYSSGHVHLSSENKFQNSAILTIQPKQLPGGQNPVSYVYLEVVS
T7 sequence (P01031 45-111): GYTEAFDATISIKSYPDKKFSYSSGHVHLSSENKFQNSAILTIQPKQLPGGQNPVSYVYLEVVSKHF
T6 sequence (P01031 52-124): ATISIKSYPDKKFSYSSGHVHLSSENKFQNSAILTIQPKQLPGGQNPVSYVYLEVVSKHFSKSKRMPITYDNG
T8 sequence (P01031 45-124): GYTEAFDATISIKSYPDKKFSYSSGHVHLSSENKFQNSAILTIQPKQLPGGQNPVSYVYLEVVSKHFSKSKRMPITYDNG

Kd [1]: 7.68 nM
binding result (481-660): no binding
binding result [2]: no binding
binding result [3]: no binding
binding result (321-500 [4]): no binding
binding result [5]: no binding
binding result [6]: no binding
binding result [7]: no binding
binding result (161-340): no binding
B1: CFA0307 (antibody, V domains shown)
VH: QSLEESGGGLVKPGASLTLTCKASGIDFSNFYYICWVRQAPGKGLDLIACIYTVSGYTYYASWAKGRLTISKTSSTTVTLQMTSLTAADTATYFCARDLHAGITNLWGPGTLVTVSS
VL: AIEMTQTPFSVSAAVGGTVTIKCQASQNIYSNLAWYQQKPGQRPKLLIYGASNLESGVPSRFKGSGSGTEYTLTISDLECADAATYYCLQGYSYSNVDDAFGGGTEVVVK
notes: Chimeric, rabbit V regions; also called CFA0307-F760G4

koff (recombinant human C5 [8]): 0.00047 s⁻¹
kon (recombinant human C5 [8]): 1.35e+06 M⁻¹ s⁻¹
koff (recombinant human C5 [9]): 0.00815 s⁻¹
kon (recombinant human C5 [9]): 136000 M⁻¹ s⁻¹
pH dependency (kd pH 5.8 / kd pH 7.4) (recombinant human C5 [10]): 17.3 fold
koff (recombinant human C5 [11]): 0.0155 s⁻¹
B2: 305LO20-SG422 (antibody, human IgG4)
heavy: QVQLVESGGGLVQPGGSLRLSCAASGFTVHSSYYMAWVRQAPGKGLEWVGAIFTGSGAEYKAEWAKGRVTISKDTSKNQVVLTMTNMDPVDTATYYCASDAGYDYPTHAMHYWGQGTLVTVSSASTKGPSVFPLAPCSRSTSGGTAALGCLVKDYFPEPVTVSWNSGALTSGVHTFPAVLQSSGLYSLSSVVTVPSSSLGTKTYTCNVDHKPSNTKVDKRVESKYGPPCPPCPAPEFRRGPKVFLFPPKPKDTLMISRTPEVTCVVVDVSHEDPEVKFNWYVDGVEVHNAKTKPREEQYNSTYRVVSVLTVLHQDWLNGKEYKCKVSNKGLPSSIEKTISKAKGQPREPQVYTLPPSREEMTKNQVSLTCLVKGFYPSDIAVEWESNGQPENNYKTTPPVLDSDGSFFLYSKLTVDKSRWQQGNVFSCSVLHEALHAHYTRKELSLSP
light: DIQMTQSPSSLSASVGDRVTITCRASQGISSSLAWYQQKPGQAPRLLIYGASETESGVPSRFSGSGSGTDFTLTISSLQPEDFATYYCQNTKVGSSYGNTFGGGTKVEIKRTVAAPSVFIFPPSDEQLKSGTASVVCLLNNFYPREAKVQWKVDNALQSGNSQESVTEQDSKDSTYSLSSTLTLSKADYEKHKVYACEVTHQGLSSPVTKSFNRGEC
notes: Modified human IgG4 CH SG422, human CL SK1

Kd [1]: 1.29 nM
binding result (481-660): no binding
binding result [2]: no binding
binding result [3]: no binding
binding result [5]: no binding
binding result [6]: no binding
binding result [7]: no binding
binding result (161-340): no binding
binding result (321-500 [12]): no binding
B3: CFA0675 (antibody, V domains shown)
VH: QSVEESGGRLVTPGTPLTLTCTVSGFSLSTYAMGWVRQAPGKGLEWIGTIDTGDNSFYANWAKGRFTISRTSTTVDLKITSPTAEDTATYFCARNDGSVYNLFNLWGPGTLVTVSS
VL: DVVMTQTPASVSAAVGGTVTIKCQASENIYSALSWYQQKPGLRPRLLIYYASTLASGVPSRFKGSRSGTEFTLTISDLECADAASYYCQQYYDINSVDNTFGGGTKVVVE
notes: Chimeric, rabbit V regions; also called CFA0675-F760G4

B4: eculizumab-F760G4 (antibody, human IgG4 S228P, kappa)
heavy: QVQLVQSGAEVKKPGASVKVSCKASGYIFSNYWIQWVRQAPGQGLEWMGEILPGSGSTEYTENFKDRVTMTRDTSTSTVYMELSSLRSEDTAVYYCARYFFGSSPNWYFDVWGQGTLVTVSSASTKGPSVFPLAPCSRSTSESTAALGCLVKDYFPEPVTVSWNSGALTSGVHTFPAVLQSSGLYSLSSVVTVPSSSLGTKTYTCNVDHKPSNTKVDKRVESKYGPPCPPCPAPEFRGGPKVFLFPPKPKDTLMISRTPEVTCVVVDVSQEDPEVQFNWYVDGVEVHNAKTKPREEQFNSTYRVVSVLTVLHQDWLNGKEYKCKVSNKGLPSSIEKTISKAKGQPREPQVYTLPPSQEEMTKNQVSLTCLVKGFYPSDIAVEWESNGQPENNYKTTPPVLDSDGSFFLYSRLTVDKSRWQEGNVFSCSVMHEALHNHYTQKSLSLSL
light: DIQMTQSPSSLSASVGDRVTITCGASENIYGALNWYQQKPGKAPKLLIYGATNLADGVPSRFSGSGSGTDFTLTISSLQPEDFATYYCQNVLNTPLTFGQGTKVEIKRTVAAPSVFIFPPSDEQLKSGTASVVCLLNNFYPREAKVQWKVDNALQSGNSQESVTEQDSKDSTYSLSSTLTLSKADYEKHKVYACEVTHQGLSSPVTKSFNRGEC
notes: EcuH VH fused to modified human IgG4 CH F760G4; EcuL VL fused to k0 light chain constant region
binding result [13]: no binding (tested: 40 nM (not printed on the sheet))

Reference: US20180002415A1 (Chugai, published 2018)
